Results on two molecules are retold here after PMC9826845, “Characterization of the Escherichia coli XPD/Rad3 iron-sulfur helicase YoaA in complex with the DNA polymerase III clamp loader subunit chi (χ)”.

This data set concerns the target YoaA (6xHis);chi (DNA polymerase III clamp loader subunit) (Escherichia coli;Escherichia coli, UniProt P76257;P28905 1-636;1-147, |). Briefly: fluorescein quenching titration; 0.5 mM ATPgS; rough estimate, no saturation; assay buffer B (composition not in the material) with 0.5 mM ATPgS, 50 nM DNA, YoaA-chi 0.1 nM-2 uM (Kd titration) or 1 uM; temperature and pH not given. The conditions noted are these: protein: recombinant;recombinant, 6xHis (His-YoaA);, copies: 1;1, label: fluorescein, 20 bp, other end blunt.

Chain of YoaA (6xHis);chi (DNA polymerase III clamp loader subunit) (P76257 whole entry, chain 1 of 2): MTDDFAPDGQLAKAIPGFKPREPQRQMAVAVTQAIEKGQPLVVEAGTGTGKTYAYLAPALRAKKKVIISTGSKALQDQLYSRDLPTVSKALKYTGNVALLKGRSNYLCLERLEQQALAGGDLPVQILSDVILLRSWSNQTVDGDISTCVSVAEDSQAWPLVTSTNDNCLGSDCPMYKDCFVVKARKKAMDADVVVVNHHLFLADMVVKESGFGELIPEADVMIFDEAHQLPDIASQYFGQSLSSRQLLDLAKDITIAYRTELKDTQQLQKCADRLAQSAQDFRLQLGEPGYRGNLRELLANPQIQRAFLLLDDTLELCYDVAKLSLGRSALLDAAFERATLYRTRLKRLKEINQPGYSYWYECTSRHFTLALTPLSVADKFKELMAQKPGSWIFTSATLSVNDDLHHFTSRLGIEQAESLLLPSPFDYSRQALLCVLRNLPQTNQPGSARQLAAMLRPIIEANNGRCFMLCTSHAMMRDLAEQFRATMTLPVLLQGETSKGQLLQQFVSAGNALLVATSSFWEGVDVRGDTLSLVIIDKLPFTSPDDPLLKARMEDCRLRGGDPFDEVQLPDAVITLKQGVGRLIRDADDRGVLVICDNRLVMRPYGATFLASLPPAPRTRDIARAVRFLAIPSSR
Chain of YoaA (6xHis);chi (DNA polymerase III clamp loader subunit) (P28905 whole entry, chain 2 of 2): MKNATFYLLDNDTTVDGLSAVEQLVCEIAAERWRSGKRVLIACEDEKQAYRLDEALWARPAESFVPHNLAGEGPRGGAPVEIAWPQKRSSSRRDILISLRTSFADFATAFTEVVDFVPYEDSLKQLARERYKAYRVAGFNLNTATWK

B1: B3 forked duplex (S4 + S5) (dsDNA)
DNA 1: TTTTTTTTTTTTTTTTTTTTTTTTTTTTTTTTTTTATAAAAGGGACATTCTGGCC
DNA 2: GGCCAGAATGTCCCTTTTATTACTGGTCGT
modifications: fluorescein at T15 of strand 2 (printed F, written as T)
As for B1, the dissociation constant Kd (in general, a measure of binding affinity in units of concentration) (fork: 35 nt 5' overhang on strand 1, 10 nt 3' overhang on strand 2) is approximately 328 nM.

B2: B2 5' overhang duplex (S18 + S5) (dsDNA)
DNA 1: B1 DNA 1
DNA 2: GGCCAGAATGTCCCTTTTAT
modifications: fluorescein at T15 of strand 2 (printed F, written as T), 6 nt from junction
With B2, where the note is “35 nt 5' overhang on strand 1”, the Kd was approximately 350 nM.
